This note sets out measurements from the supplement of paper PMC12042874.

The nature of the series: amyloid nucleation score (Sup35N fusion, yeast selection) (log enrichment); library NNK1; higher = more nucleation; inactive = no reads after selection. The gist of the method:
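Psi-negative yeast expressed Sup35N fused to peptides of 20 random codons. They were induced 24 hours with 100 μM copper sulfate, grown 7 days at 30°C without adenine and uracil, and their plasmid inserts from input and output were Illumina-sequenced. The nucleation score is the DiMSum log enrichment of output over input reads, centred on the mode score of non-aggregating sequences. Sequences with under 100 input reads were excluded.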

± gives the uncertainty stated by the source.

Consider CLLFTEMFTPLVEVAESM, for which the amyloid nucleation score is -0.038 ± 0.48.
In the case of AWKLRVFRDSAL it was 0.608 ± 1.1.
For FIVKKFIKSNRLVLMRGSPL, the amyloid nucleation score came out at 0.669 ± 0.49.
With LHIVMLVLMASMEQTVTS the figure was -1.11 ± 2.4; with ATNSEAARYLS, 0.996 ± 0.62; with HCPCGCYTPFLAKRMSSVLV, 0.362 ± 0.26.
In the case of GVKSQYALNKLGCGELWLRL it was 0.364 ± 0.28; in that of RMDSRKGTNNKSFSGGLEYR, -0.366 ± 0.32; in that of VSQCS, 0.238 ± 0.54.
In the case of SRLEKKGNWPVYSTQAVWMT, the amyloid nucleation score is -0.421 ± 0.42.
With SLIRIVSS the figure was 0.372 ± 0.52; with SMRIFMMLQWYRGSNLCFFH, 0.537 ± 1.1.
On to HGYFSNMWSYRRYQLLKLSP, for which the amyloid nucleation score came out at 0.664 ± 0.77.
In the case of YKGYYCGSDDFPDSEKPEDG it was -0.256 ± 0.32.
On to VMSSMMWYSYHMFHPYNAFE, for which the amyloid nucleation score came out at 1.28 ± 0.79.
With VGPRGSGPWGGVCLCGCSKE the figure was 1.11 ± 0.51; with LGFCTLFISMEDQLCVLQIL, -0.546 ± 1.2; with GYIDFCFLWD, -0.333 ± 0.21.
In the case of YWPGFSNRFR it was 0.397 ± 0.75; in that of VGLGYYNSSK, 0.91 ± 0.51; in that of SLSWEAYRSLLS, 1.1 ± 0.23.
DSLGGSKSCGSKL returned an amyloid nucleation score of 0.891 ± 0.97.
In turn, ELLACGIKRRVVKTGVRTAY showed an amyloid nucleation score of -0.407 ± 1.2.
WWNIEEM registered an amyloid nucleation score of -0.271 ± 0.24.
In the case of LVMCFVMGMLNLDAGLIMRM it was 0.425 ± 0.37; in that of RIRIFNKKSGMGQRWILVEG, -0.006 ± 0.73.
In the case of SSLVATPLGLELIKGRSSSL it was 0.57 ± 1.2; in that of SLRFQSYRAWSMGWKLDDSC, 0.821 ± 1.1.
Take WSPEMNVVKFTLFYNRSSRF: the amyloid nucleation score was 7.13 ± 0.078.
In turn, SDYILCIPWPSGLS had an amyloid nucleation score of 0.734 ± 0.97.
The substance APGDWLLSDASAAVGEMVE yielded an amyloid nucleation score of 0.778 ± 0.81.
QYVPNETVDI showed an amyloid nucleation score of 1.4 ± 0.25.
Consider YPGFVCKVWIVVARKSFELE, for which the amyloid nucleation score entry is “inactive”.
In the case of THWLNRTGCVRTHPVQSGKE it was -1.09 ± 1; in that of ATVSDF, -0.478 ± 0.36; in that of DRWDFMQLNCIHLEA, 0.885 ± 0.88.
With RHLLSSYRGFLLEQVSASNS the figure was 1.51 ± 0.38.
With CLSSALLHLFRRNRIISVVT the figure was 0.193 ± 0.39; with FNHMLSMVGSRVCYLAMSFV, 0.17 ± 0.58; with ILCTIFHRTCFLRFRILEHF, “inactive”.
On to CTGSVWYAPLWMWWEWLR, for which the amyloid nucleation score was determined as 0.498 ± 0.69.
As for LVVLLIRTNCVKRKEFGERA, the amyloid nucleation score was -2.04 ± 2.4.
In the case of TMYWITQKVEKSSHMVCRVT it was 2.61 ± 0.078; in that of TQSTLGSMTIASDYCTTE, 1.42 ± 0.34.
With YLWVIATLQFEV the figure was -0.783 ± 0.63.
With FHNRINKPTK the entry was “inactive”.
The substance AAWMWWTLLSTY displayed an amyloid nucleation score of -0.377 ± 0.37.
The substance MVNWEARQ yielded an amyloid nucleation score of 0.862 ± 0.64.
With HGLAYCGRQLFGARFILRYR, the amyloid nucleation score is 0.255 ± 0.23.
In the case of LIVVSLGKMKLGYYFKFNVL it was 0.286 ± 0.22; in that of KDLEPVSARMFLLLLICLA, 0.057 ± 0.52.
With SSDSLYTYDMDWAWAGTP the figure was 0.281 ± 0.38; with FYVMCSARSQHAFSNKYLGY, -0.165 ± 0.26; with CYELSGWGNSWVGNRSLGFV, 0.626 ± 0.46.
With SAVINFLRSQKLLNCGMGVT the figure was -0.529 ± 1.7; with FKSASVRRI, -0.822 ± 0.84; with GVYSGVVSRSL, -0.21 ± 0.34.
